Self-cleavage data for 167 variants are collected here from the RNAGym collection of RNA variant scans (doi:10.7554/elife.80360).

B1: Twister Ribozyme (parent)
chain: AACACUGCCAAUGCCGGUCCCAAGCCCGGAUAAAAGUGGAGGGGGCGG

The variants in this series derive from B1. Nature of the series: self-cleavage, relative activity (ratio to wild type); higher = more cleavage; co-transcriptional.
With C9U A34G, the self-cleavage is 0.3. Then C9U A34U, with 0.477. To A10G G13U belongs 0.79.

On to A10G G13C, for which the self-cleavage came to 0.835.

Take A10G G13A: the self-cleavage is 1.09. On to A10U G45U, for which the self-cleavage amounted to 0.871. To A10U G45A belongs 0.999; to A10G A40C, 0.46; to A10G A40G, 0.185. Then A10G A40U, with 0.157. Then A11G A23U, with 0.614; and A11C G39U, with 0.214. As for A11C G39C, the self-cleavage was determined as 0.208. To A11C G39A belongs 0.601; to A10C U12G, 1.06. Consider A10U C46U, for which the self-cleavage turned out to be 0.836. To A11C A33U belongs 0.853; to A10U G29U, 0.939; to C9U G42U, 0.102. To C9U G42C belongs 0.193; to A10C A33C, 1.14; to A10U C27G, 0.057. To A10U C27U belongs 0.93; to C9G C46G, 0.576.

With A11G A32U, the self-cleavage was 0.841.

On to A10C G44U, for which the self-cleavage was 0.859. For A10U G13A, the self-cleavage was determined as 0.913. Then A10U G13C, with 0.211; and A10G C27U, with 1.01.

Regarding A10U G42U, the self-cleavage was 0.447. To A11G C26A belongs 0.187; to A10C C27A, 0.673. Then A10C C27G, with 0.0988; and A10C G36C, with 0.688. To A10C U37C belongs 0.767; to A10G G45C, 0.639; to A11G C19G, 0.538. With A11G C19U, the self-cleavage was found to be 0.792. Then A10C A22C, with 0.993; and A10C A35G, with 0.965. Consider A10U G16U, for which the self-cleavage worked out at 0.802. Regarding A10U G16C, the self-cleavage amounted to 0.419.

Consider C9U G39U, for which the self-cleavage came out at 0.115.

For C9U G39C, the self-cleavage came to 0.151.

On to A10C U18C, for which the self-cleavage was found to be 0.787. Regarding A10G A23G, the self-cleavage is 0.879. To A10G A23C belongs 0.714; to C9U A23C, 0.0976; to A11C G36A, 0.87. For the variant A11C G36U, the self-cleavage turned out to be 0.8.

Regarding A11C C15A, the self-cleavage was found to be 0.24.

For A11C G17C, the self-cleavage came to 0.0996. To A10C G48C belongs 1.03; to A11C A34G, 0.713; to A10U C14U, 0.884. Then A11G A30G, with 0.674; and A11G A30U, with 0.976; and A11C C14A, with 0.69. Then A11C C14U, with 0.909; and C9U A35G, with 0.615; and C9U A35C, with 0.636. In the case of A10C G16A, the self-cleavage was determined as 0.726. Then A10C G16C, with 0.526; and C9G G13U, with 0.933; and C9G G13C, with 0.876.

As to C9G G13A, the self-cleavage is 1.07. For the variant A10G A30U, the self-cleavage stood at 0.984. On to A10G A30C, for which the self-cleavage came out at 0.981. To A10C U31G belongs 0.737; to A10G A22G, 0.268; to A10G A22C, 0.818.

A10G A22U: the self-cleavage is 0.971. Then A10U A40C, with 0.305; and A10U A40U, with 0.111; and A10C G42C, with 0.345. Then A10C G42A, with 0.31; and C9G G38A, with 0.278. Take C9G G38C: the self-cleavage turned out to be 0.4. To A10C G24C belongs 0.0859.

Regarding C9G G41U, the self-cleavage is 0.122. In the case of C9G G41C, the self-cleavage came to 0.145. Then A10U A35U, with 0.89; and A10U G38U, with 0.863; and A11G A22G, with 0.23. For A10U G24U, the self-cleavage was 0.119. For A10U G39C, the self-cleavage amounted to 0.0863. Then A11G A34G, with 0.819. For the variant A10G G47A, the self-cleavage came to 0.821. For the variant A10G G47C, the self-cleavage was found to be 0.809. To A11C G24U belongs 0.0789; to A11C G24A, 0.0913; to A11C G24C, 0.0648. For the variant A10C C21G, the self-cleavage was determined as 0.0689. To A10G C46G belongs 0.971; to A10G C46A, 0.939. To C9U C27A belongs 0.064; to A10G C21G, 0.0634. To A10G C21A belongs 0.137. For the variant C9U C21U, the self-cleavage came out at 0.0907.

On to C9U C21G, for which the self-cleavage stood at 0.0888. As for A10G A34C, the self-cleavage was found to be 0.498.

With A10G A34U, the self-cleavage amounted to 0.959. On to A10U G47A, for which the self-cleavage was 0.946.

A10U G47U: the self-cleavage turned out to be 1.01. Then A10U G47C, with 0.596; and A10G G43A, with 0.363; and A10G G43C, with 0.262. To C9U C14G belongs 0.0927; to A11C U31G, 0.917. Turning to A11C U31A, the self-cleavage was found to be 0.502. For the variant C9U G45A, the self-cleavage came out at 0.547. To C9U G45U belongs 0.328. Regarding A10G U18A, the self-cleavage stood at 0.841. To A10G U18G belongs 0.0537; to A10U G48A, 0.959; to A10U C19U, 0.92.

Take A11C C20G: the self-cleavage came out at 0.131. Then A11C C20U, with 0.91; and A11G A35C, with 0.903; and A10G A33G, with 1.04. Then A10C G41U, with 0.653; and A10C G41C, with 0.23; and A10C G41A, with 0.494. For C9G G39C, the self-cleavage was determined as 0.132. To C9U G48A belongs 0.491. Then C9U G48C, with 0.795. Consider C9U G48U, for which the self-cleavage worked out at 0.646. To C9U A30G belongs 0.865. For the variant C9U A30C, the self-cleavage was determined as 0.526. Then A10G U37C, with 0.946; and A10G U37A, with 0.805.

Consider A10G U37G, for which the self-cleavage worked out at 0.89. To A10G C26A belongs 0.518; to A10G C26U, 0.285; to C9G U18A, 0.108.

Consider C9G U18C, for which the self-cleavage turned out to be 0.0886. Take C9G U18G: the self-cleavage came out at 0.0467. To A10U U37G belongs 0.602; to A11C G28C, 0.431. On to A11C A23C, for which the self-cleavage came to 0.0766. To A11G C25A belongs 0.13; to A11G C25U, 0.737. Turning to A10G A32G, the self-cleavage came to 1.15. Then A10G A32U, with 1.01; and A10C G28A, with 0.841.

Turning to A10C G28C, the self-cleavage turned out to be 0.822. In the case of C9U G17A, the self-cleavage turned out to be 0.0711. As to A10C G38A, the self-cleavage amounted to 0.947. Consider A10G C19U, for which the self-cleavage came out at 1.02. As to A10G C19A, the self-cleavage worked out at 0.472. Then A10G G38A, with 0.89. Then A10G U12C, with 0.847; and A10C A32U, with 0.892; and A10C A32G, with 0.971. Then A11C G16U, with 0.0992; and A11C G16A, with 0.234. With A11C C19U, the self-cleavage was determined as 0.627.

Turning to A10U C15U, the self-cleavage is 0.911. As for A10U C15G, the self-cleavage came to 0.062.

For A10U C15A, the self-cleavage was found to be 0.619. Then A10C G13U, with 0.677; and C9G G45U, with 0.205. To C9G G45C belongs 0.171; to C9G U37G, 0.327; to A10C C26U, 0.508. In the case of C9G G42A, the self-cleavage was 0.12. For C9G G42C, the self-cleavage stood at 0.199.
